Experimental findings from paper PMC8429438, “DnaJC7 binds natively folded structural elements in tau to inhibit amyloid formation” (Nature Communications, 2021) are described below.

Values joined by “and” are separate entries in the source; they are usually repeats but may differ in a detail not shown here. Equal values may be shown once.

Assay [1] addresses T1, full-length 2N4R P301L tau (human, UniProt P10636-8 1-441, P301L, Cy5 (Cyanine5 NHS ester) label in the MST assays; unlabelled in cross-linking and aggregation assays).
T1 construct: microtubule-associated protein tau, 2N4R isoform, with the frontotemporal dementia disease-associated P301L mutation; source: E. coli BL21 (DE3), pET28b, purified
Put plainly: MST; WT tau or P301L tau labelled with Cyanine5 NHS ester dye (Cy5) and titrated by a serial two-fold dilution of DnaJC7 domains; n=3; Nanotemper Monolith NT.115; 1:1 binding model. Conditions: both partners purified.

In assay [2] the target is T2, full-length 2N4R wild-type tau (human, UniProt P10636-8 1-441, Cy5 (Cyanine5 NHS ester) label in MST).
T2 construct: microtubule-associated protein tau, 2N4R isoform, full length; also called WT tau; full-length tau; source: E. coli BL21 (DE3), pET28b, purified
The experiment in a line: MST; Cy5-labelled wild-type or mutant tau/tauRD titrated with a serial two-fold dilution of DnaJC7 or single DnaJC7 domains; Monolith NT.115; technical triplicates; fit in PALMIST with a 1:1 binding model. Conditions: both partners purified.

Assay [3] addresses T3, full-length 2N4R P301L tau (human, UniProt P10636-8 1-441, P301L, Cy5 (Cyanine5 NHS ester) label in MST).
T3 construct: microtubule-associated protein tau, 2N4R isoform, full length, with the disease-associated P301L mutation; also called full-length P301L tau mutant; source: E. coli BL21 (DE3), pET28b, purified
The assay is described as above. Conditions: both partners purified.

In assay [4] the target is T4, full-length 2N4R wild-type tau (human, UniProt P10636-8 1-441, Cy5 (Cyanine5 NHS ester) label in the MST assays; unlabelled in cross-linking and aggregation assays).
T4 construct: microtubule-associated protein tau, 2N4R isoform; also called WT tau; WT TAU; source: E. coli BL21 (DE3), pET28b, purified
Put plainly: MST; WT tau or P301L tau labelled with Cyanine5 NHS ester dye (Cy5) and titrated by a serial two-fold dilution of DnaJC7 domains; n=3; Nanotemper Monolith NT.115; 1:1 binding model. The note with it: both partners purified.

For assay [5], the target named is T2, full-length 2N4R wild-type tau. The experiment in a line: cell-based or functional assay.
Assay [6] concerns the target T5, recombinant tau monomer seed (human, UniProt P10636-8 1-441, Cy5 (Cyanine5 NHS ester) label in MST).
T5 construct: Probably made from the full-length 2N4R tau of m5; the methods say only 'wild-type tau'; also called tau monomer seeds; tau seeds; source: wild-type tau from E. coli BL21 (DE3) incubated 1:1 with heparin for 1 h at 37 °C, isolated on Superdex 200
The experiment in a line: MST; Cy5-labelled wild-type or mutant tau/tauRD titrated with a serial two-fold dilution of DnaJC7 or single DnaJC7 domains; Monolith NT.115; technical triplicates; fit in PALMIST with a 1:1 binding model. The note with it: both partners purified.

T1 sequence (P10636 other isoform, or with tags, fused parts or gaps P301L | P301L | P301L P301L): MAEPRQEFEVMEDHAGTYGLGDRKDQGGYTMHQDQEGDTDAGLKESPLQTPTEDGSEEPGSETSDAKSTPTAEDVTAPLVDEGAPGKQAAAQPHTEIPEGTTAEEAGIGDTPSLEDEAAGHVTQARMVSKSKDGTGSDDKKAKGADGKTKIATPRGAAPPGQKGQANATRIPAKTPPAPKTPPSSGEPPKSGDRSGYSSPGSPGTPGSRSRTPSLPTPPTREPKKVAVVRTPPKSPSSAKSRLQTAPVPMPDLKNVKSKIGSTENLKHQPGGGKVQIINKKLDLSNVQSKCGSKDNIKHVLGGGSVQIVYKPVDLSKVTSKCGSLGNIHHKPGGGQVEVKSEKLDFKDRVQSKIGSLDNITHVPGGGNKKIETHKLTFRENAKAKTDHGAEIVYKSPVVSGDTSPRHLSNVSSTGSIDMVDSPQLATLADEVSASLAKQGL
T3 sequence (P10636 other isoform, or with tags, fused parts or gaps P301L | P301L | P301L P301L): as above
T2 sequence (P10636 other isoform, or with tags, fused parts or gaps): as the sequence (P10636 other isoform, or with tags, fused parts or gaps P301L | P301L | P301L P301L) above, with L301P counted along it
T4 sequence (P10636 other isoform, or with tags, fused parts or gaps): as the sequence (P10636 other isoform, or with tags, fused parts or gaps P301L | P301L | P301L P301L) above, with L301P counted along it
T5 sequence (P10636 other isoform, or with tags, fused parts or gaps): as the sequence (P10636 other isoform, or with tags, fused parts or gaps P301L | P301L | P301L P301L) above, with L301P counted along it

B1: DnaJC7 TPR1 domain (20-156) (domain or fragment, UniProt Q99615 20-156, looked up)
chain: DDQEAKREAETFKEQGNAYYAKKDYNEAYNYYTKAIDMCPKNASYYGNRAATLMMLGRFREALGDAQQSVRLDDSFVRGHLREGKCHLSLGNAMAACRSFQRALELDHKNAQAQQEFKNANAVMEYEKIAETDFEKR
notes: DnaJC7, TPR1 domain, residues 20-156; also called TPR1_(20-156); not shown: His tag (from the vector pMCSG7)
The Kd is the equilibrium constant for the complex coming apart. In assay [1], B1 yielded a dissociation constant (Kd) of 404 nM.

B2: DnaJC7 TPR1 domain (TPR1 20-156) (domain or fragment, UniProt Q99615 20-156, looked up)
chain: DDQEAKREAETFKEQGNAYYAKKDYNEAYNYYTKAIDMCPKNASYYGNRAATLMMLGRFREALGDAQQSVRLDDSFVRGHLREGKCHLSLGNAMAACRSFQRALELDHKNAQAQQEFKNANAVMEYEKIAETDFEKR
notes: DnaJC7 residues 20-156, TPR1 domain
The molecule B2 had a dissociation constant (Kd) in assay [2] of 84 nM. The “fold increase in binding affinity relative to full-length DnaJC7” value in assay [3] was more than 12 fold.

B3: DnaJC7 TPR2a domain (141-270) (domain or fragment, UniProt Q99615 141-270, looked up)
chain: AVMEYEKIAETDFEKRDFRKVVFCMDRALEFAPACHRFKILKAECLAMLGRYPEAQSVASDILRMDSTNADALYVRGLCLYYEDCIEKAVQFFVQALRMAPDHEKACIACRNAKALKAKKEDGNKAFKEG
notes: DnaJC7, TPR2a domain, residues 141-270; also called TPR2a_(141-270); not shown: His tag (from the vector pMCSG7)
For the molecule B3, the values for the Kd in assay [4] and in assay [1] were 202 nM and 670 nM, respectively.

B4: DnaJC7 TPR2a domain (TPR2a 141-270) (domain or fragment, UniProt Q99615 141-270, looked up)
chain: AVMEYEKIAETDFEKRDFRKVVFCMDRALEFAPACHRFKILKAECLAMLGRYPEAQSVASDILRMDSTNADALYVRGLCLYYEDCIEKAVQFFVQALRMAPDHEKACIACRNAKALKAKKEDGNKAFKEG
notes: DnaJC7 residues 141-270, TPR2a domain
On to B4, for which the “fold tighter binding than full-length DnaJC7” value in assay [2] was more than 2 fold. Also, the “fold increase in binding affinity relative to full-length DnaJC7” value in assay [3] was more than 12 fold.

B5: DnaJC7 J domain (JD 380-494) (domain or fragment, UniProt Q99615 380-494, looked up)
chain: KDYYKILGVDKNASEDEIKKAYRKRALMHHPDRHSGASAEVQKEEEKKFKEVGEAFTILSDPKKKTRYDSGQDLDEEGMNMGDFDPNNIFKAFFGGPGGFSFEASGPGNFFFQFG
notes: DnaJC7 residues 380-494, C-terminal J domain; also called J domain_(380-494)
Consider B5, for which the dissociation constant (Kd) in assay [2] worked out at 8200 nM; in assay [3], 28200 nM.

B6: DnaJC7 TPR2b domain (255-370) (domain or fragment, UniProt Q99615 255-370, looked up)
chain: ALKAKKEDGNKAFKEGNYKLAYELYTEALGIDPNNIKTNAKLYCNRGTVNSKLRKLDDAIEDCTNAVKLDDTYIKAYLRRAQCYMDTEQYEEAVRDYEKVYQTEKTKEHKQLLKNA
notes: also called TPR2b_(255-370); TPR2b_(253-370); not shown: His tag (from the vector pMCSG7)
Regarding B6, the affinity in assay [1], expressed as Kd, was 507 nM.

B7: DnaJC7 TPR2b domain (TPR2b 255-370) (domain or fragment, UniProt Q99615 255-370, looked up)
chain: ALKAKKEDGNKAFKEGNYKLAYELYTEALGIDPNNIKTNAKLYCNRGTVNSKLRKLDDAIEDCTNAVKLDDTYIKAYLRRAQCYMDTEQYEEAVRDYEKVYQTEKTKEHKQLLKNA
notes: also called TPR2b_(253-370)
In assay [2], B7 showed a Kd of 75 nM. For the same molecule, the “fold increase in binding affinity relative to full-length DnaJC7” value in assay [3] was more than 12 fold.

B8: DnaJC7 (full-length, wild type, recombinant) (natural protein, UniProt Q99615 1-494, looked up)
chain: MAAAAECDVVMAATEPELLDDQEAKREAETFKEQGNAYYAKKDYNEAYNYYTKAIDMCPKNASYYGNRAATLMMLGRFREALGDAQQSVRLDDSFVRGHLREGKCHLSLGNAMAACRSFQRALELDHKNAQAQQEFKNANAVMEYEKIAETDFEKRDFRKVVFCMDRALEFAPACHRFKILKAECLAMLGRYPEAQSVASDILRMDSTNADALYVRGLCLYYEDCIEKAVQFFVQALRMAPDHEKACIACRNAKALKAKKEDGNKAFKEGNYKLAYELYTEALGIDPNNIKTNAKLYCNRGTVNSKLRKLDDAIEDCTNAVKLDDTYIKAYLRRAQCYMDTEQYEEAVRDYEKVYQTEKTKEHKQLLKNAQLELKKSKRKDYYKILGVDKNASEDEIKKAYRKRALMHHPDRHSGASAEVQKEEEKKFKEVGEAFTILSDPKKKTRYDSGQDLDEEGMNMGDFDPNNIFKAFFGGPGGFSFEASGPGNFFFQFG
notes: DnaJC7, class-C J-domain protein with TPR1, TPR2a, TPR2b and a C-terminal J domain; called full-length DnaJC7; Plasmid was a gift (A. Joachimiak); also called DnaJC7WT; WT DnaJC7
As to B8, in assay [5], the “ThT fluorescence of 4.4 µM WT tau seeded with 50 nM tau monomer seeds with equimolar DnaJC7WT over 100 h, relative to the seeded tau control” value turned out to be 20%. In addition, the Kd in assay [2] is 471 nM and 343 nM; in assay [6], 15500 ± 2200 nM.

B9: DnaJC7_(TPR2b_mut) (full-length DnaJC7 with six alanine mutations in the TPR2b binding groove) (natural protein, UniProt Q99615 1-494, looked up)
chain: MAAAAECDVVMAATEPELLDDQEAKREAETFKEQGNAYYAKKDYNEAYNYYTKAIDMCPKNASYYGNRAATLMMLGRFREALGDAQQSVRLDDSFVRGHLREGKCHLSLGNAMAACRSFQRALELDHKNAQAQQEFKNANAVMEYEKIAETDFEKRDFRKVVFCMDRALEFAPACHRFKILKAECLAMLGRYPEAQSVASDILRMDSTNADALYVRGLCLYYEDCIEKAVQFFVQALRMAPDHEKACIACRNAKALKAKAEDGAKAAAAGNAKLAYELYTEALGIDPNNIKTNAKLYCNRGTVNSKLRKLDDAIEDCTNAVKLDDTYIKAYLRRAQCYMDTEQYEEAVRDYEKVYQTEKTKEHKQLLKNAQLELKKSKRKDYYKILGVDKNASEDEIKKAYRKRALMHHPDRHSGASAEVQKEEEKKFKEVGEAFTILSDPKKKTRYDSGQDLDEEGMNMGDFDPNNIFKAFFGGPGGFSFEASGPGNFFFQFG
notes: also called DnaJC7_(TPR2_mut); source: recombinant from pET29b (NdeI/XhoI)
Molecule B9 had a Kd in assay [2] of 6000 ± 1200 nM.
